Test results reported in patent US20250025478A1 (published 2025).

B1: FLII (other, Homo sapiens, UniProt Q13045-2 1-1214, looked up)
chain: MEATGVLPFVRGVDLSGNDFKGGYFPENVKAMTSLRWLKLNRTGLCYLPEELAALQKLEHLSVSHNNLTTLHGELSSLPSLRAIVARANSLKNSGVPDDIFKLDDLSVLDLSHNQLTECPRELENAKNMLVLNLSHNRQLPAMTALQTLHLRSTQRTQSNLPTSLEGLSNLADVDLSCNDLTRVPECLYTLPSLRRLNLSSNQITELSLCIDQWVHVETLNLSRNQLTSLPSAICKLSKLKKLYLNSNKLDFDGLPSGIGKLTNLEEFMAANNNLELVPESLCRCPKLRKLVLNKNHLVTLPEAIHFLTEIEVLDVRENPNLVMPPKPADRAAEWYNIDFSLQNQLRLAGASPATVAAAAAGSGPKDPMARKMRLRRRKDSAQDDQAKQVLKGMSDVAQEKNKKQEESADARAPSGKVRRWDQGLEKPRLDYSEFFTEDVGQLPGLTIWQIENFVPVLVEEAFHGKFYEADCYIVLKTFLDDSGSLNWEIYYWIGGEATLDKKACSAIHAVNLRNYLGAECRTVREEMGDESEEFLQVFDNDISYIEGGTASGFYTVEDTHYVTRMYRVYGKKNIKLEPVPLKGTSLDPRFVFLLDRGLDIYVWRGAQATLSSTTKARLFAEKINKNERKGKAEITLLVQGQELPEFWEALGGEPSEIKKHVPEDFWPPQPKLYKVGLGLGYLELPQINYKLSVEHKQRPKVELMPRMRLLQSLLDTRCVYILDCWSDVFIWLGRKSPRLVRAAALKLGQELCGMLHRPRHATVSRSLEGTEAQVFKAKFKNWDDVLTVDYTRNAEAVLQSPGLSGKVKRDAEKKDQMKADLTALFLPRQPPMSLAEAEQLMEEWNEDLDGMEGFVLEGKKFARLPEEEFGHFYTQDCYVFLCRYWVPVEYEEEEKKEDKEEKAEGKEGEEATAEAEEKQPEEDFQCIVYFWQGREASNMGWLTFTFSLQKKFESLFPGKLEVVRMTQQQENPKFLSHFKRKFIIHRGKRKAVQGAQQPSLYQIRTNGSALCTRCIQINTDSSLLNSEFCFILKVPFESEDNQGIVYAWVGRASDPDEAKLAEDILNTMFDTSYSKQVINEGEEPENFFWVGIGAQKPYDDDAEYMKHTRLFRCSNEKGYFAVTEKCSDFCQDDLADDDIMLLDNGQEVYMWVGTQTSQVEIKLSLKACQVYIQHMRSKEHERPRRLRLVRKGNEQHAFTRCFHAWSAFCKALA
notes: Endogenous protein found by proximity labelling/MS; also called Protein flightless-1 homolog
B2: SARS2 (enzyme, Homo sapiens, UniProt Q9NP81 35-518, looked up)
chain: TTEKRNRNLLYEYAREGYSALPQLDIERFCACPEEAAHALELRKGELRSADLPAIISTWQELRQLQEQIRSLEEEKAAVTEAVRALLANQDSGEVQQDPKYQGLRARGREIRKELVHLYPREAQLEEQFYLQALKLPNQTHPDVPVGDESQARVLHMVGDKPVFSFQPRGHLEIGEKLDIIRQKRLSHVSGHRSYYLRGAGALLQHGLVNFTFNKLLRRGFTPMTVPDLLRGAVFEGCGMTPNANPSQIYNIDPARFKDLNLAGTAEVGLAGYFMDHTVAFRDLPVRMVCSSTCYRAETNTGQEPRGLYRVHHFTKVEMFGVTGPGLEQSSQLLEEFLSLQMEILTELGLHFRVLDMPTQELGLPAYRKFDIEAWMPGRGRFGEVTSASNCTDFQSRRLHIMFQTEAGELQFAHTVNATACAVPRLLIALLESNQQKDGSVLVPPALQSYLGTDRITAPTHVPLQYIGPNQPRKPGLPGQPAVS
notes: Endogenous protein found by proximity labelling/MS; also called Serine -- tRNA ligase, mitochondrial
B3: CPEB4 (other, Homo sapiens, UniProt Q17RY0-2 1-712, looked up)
chain: MGDYGFGVLVQSNTGNKSAFPVRFHPHLQPPHHHQNATPSPAAFINNNTAANGSSAGSAWLFPAPATHNIQDEILGSEKAKSQQQEQQDPLEKQQLSPSPGQEAGILPETEKAKSEENQGDNSSENGNGKEKIRIESPVLTGFDYQEATGLGTSTQPLTSSASSLTGFSNWSAAIAPSSSTIINEDASFFHQGGVPAASANNGALLFQNFPHHVSPGFGGSFSPQIGPLSQHHPHHPHFQHHHSQHQQQRRSPASPHPPPFTHRNAAFNQLPHLANNLNKPPSPWSSYQSPSPTPSSSWSPGGGGYGGWGGSQGRDHRRGLNGGITPLNSISPLKKNFASNHIQLQKYARPSSAFAPKSWMEDSLNRADNIFPFPDRPRTFDMHSLESSLIDIMRAENDTIKARTYGRRRGQSSLFPMEDGFLDDGRGDQPLHSGLGSPHCFSHQNGERVERYSRKVFVGGLPPDIDEDEITASFRRFGPLIVDWPHKAESKSYFPPKGYAFLLFQDESSVQALIDACIEEDGKLYLCVSSPTIKDKPVQIRPWNLSDSDFVMDGSQPLDPRKTIFVGGVPRPLRAVELAMIMDRLYGGVCYAGIDTDPELKYPKGAGRVAFSNQQSYIAAISARFVQLQHGEIDKRVEVKPYVLDDQLCDECQGARCGGKFAPFFCANVTCLQYYCEYCWAAIHSRAGREFHKPLVKEGGDRPRHISFRWN
notes: Endogenous protein found by proximity labelling/MS
B4: SPTLC1 (enzyme, Homo sapiens, UniProt O15269 1-473, looked up)
chain: MATATEQWVLVEMVQALYEAPAYHLILEGILILWIIRLLFSKTYKLQERSDLTVKEKEELIEEWQPEPLVPPVPKDHPALNYNIVSGPPSHKTVVNGKECINFASFNFLGLLDNPRVKAAALASLKKYGVGTCGPRGFYGTFDVHLDLEDRLAKFMKTEEAIIYSYGFATIASAIPAYSKRGDIVFVDRAACFAIQKGLQASRSDIKLFKHNDMADLERLLKEQEIEDQKNPRKARVTRRFIVVEGLYMNTGTICPLPELVKLKYKYKARIFLEESLSFGVLGEHGRGVTEHYGINIDDIDLISANMENALASIGGFCCGRSFVIDHQRLSGQGYCFSASLPPLLAAAAIEALNIMEENPGIFAVLKEKCGQIHKALQGISGLKVVGESLSPAFHLQLEESTGSREQDVRLLQEIVDQCMNRSIALTQARYLEKEEKCLPPPSIRVVVTVEQTEEELERAASTIKEVAQAVLL
notes: Endogenous protein found by proximity labelling/MS; also called Serine palmitoyltransferase 1
B5: ALDH1B1 (enzyme, Homo sapiens, UniProt P30837 18-517, looked up)
chain: RYSSAAALPSPILNPDIPYNQLFINNEWQDAVSKKTFPTVNPTTGEVIGHVAEGDRADVDRAVKAAREAFRLGSPWRRMDASERGRLLNRLADLVERDRVYLASLETLDNGKPFQESYALDLDEVIKVYRYFAGWADKWHGKTIPMDGQHFCFTRHEPVGVCGQIIPWNFPLVMQGWKLAPALATGNTVVMKVAEQTPLSALYLASLIKEAGFPPGVVNIITGYGPTAGAAIAQHVDVDKVAFTGSTEVGHLIQKAAGDSNLKRVTLELGGKSPSIVLADADMEHAVEQCHEALFFNMGQCCCAGSRTFVEESIYNEFLERTVEKAKQRKVGNPFELDTQQGPQVDKEQFERVLGYIQLGQKEGAKLLCGGERFGERGFFIKPTVFGGVQDDMRIAKEEIFGPVQPLFKFKKIEEVVERANNTRYGLAAAVFTRDLDKAMYFTQALQAGTVWVNTYNIVTCHTPFGGFKESGNGRELGEDGLKAYTEVKTVTIKVPQKNS
notes: Endogenous protein found by proximity labelling/MS; also called Aldehyde dehydrogenase X, mitochondrial
B6: MAP4K4 (enzyme, Homo sapiens, UniProt O95819-4 2-1165, looked up)
chain: ANDSPAKSLVDIDLSSLRDPAGIFELVEVVGNGTYGQVYKGRHVKTGQLAAIKVMDVTEDEEEEIKLEINMLKKYSHHRNIATYYGAFIKKSPPGHDDQLWLVMEFCGAGSITDLVKNTKGNTLKEDWIAYISREILRGLAHLHIHHVIHRDIKGQNVLLTENAEVKLVDFGVSAQLDRTVGRRNTFIGTPYWMAPEVIACDENPDATYDYRSDLWSCGITAIEMAEGAPPLCDMHPMRALFLIPRNPPPRLKSKKWSKKFFSFIEGCLVKNYMQRPSTEQLLKHPFIRDQPNERQVRIQLKDHIDRTRKKRGEKDETEYEYSGSEEEEEEVPEQEGEPSSIVNVPGESTLRRDFLRLQQENKERSEALRRQQLLQEQQLREQEEYKRQLLAERQKRIEQQKEQRRRLEEQQRREREARRQQEREQRRREQEEKRRLEELERRRKEEEERRRAEEEKRRVEREQEYIRRQLEEEQRHLEVLQQQLLQEQAMLLHDHRRPHPQHSQQPPPPQQERSKPSFHAPEPKAHYEPADRAREVPVRTTSRSPVLSRRDSPLQGSGQQNSQAGQRNSTSIEPRLLWERVEKLVPRPGSGSSSGSSNSGSQPGSHPGSQSGSGERFRVRSSSKSEGSPSQRLENAVKKPEDKKEVFRPLKPAGEVDLTALAKELRAVEDVRPPHKVTDYSSSSEESGTTDEEDDDVEQEGADESTSGPEDTRAASSLNLSNGETESVKTMIVHDDVESEPAMTPSKEGTLIVRQTQSASSTLQKHKSSSSFTPFIDPRLLQISPSSGTTVTSVVGFSCDGMRPEAIRQDPTRKGSVVNVNPTNTRPQSDTPEIRKYKKRFNSEILCAALWGVNLLVGTESGLMLLDRSGQGKVYPLINRRRFQQMDVLEGLNVLVTISGKKDKLRVYYLSWLRNKILHNDPEVEKKQGWTTVGDLEGCVHYKVVKYERIKFLVIALKSSVEVYAWAPKPYHKFMAFKSFGELVHKPLLVDLTVEEGQRLKVIYGSCAGFHAVDVDSGSVYDIYLPTHVRKNPHSMIQCSIKPHAIIILPNTDGMELLVCYEDEGVYVNTYGRITKDVVLQWGEMPTSVAYIRSNQTMGWGEKAIEIRSVETGHLDGVFMHKRAQRLKFLCERNDKVFFASVRSGGSSQVYFMTLGRTSLLSW
notes: as for B3

Molecular target: T1, RNF213-TurboID (Homo sapiens (Human), UniProt Q63HN8 1-5207)
T1 construct: Recombined into HeLa FlpIn-TRex RNF213-KO cells; proximity-labelling bait; also called C-Turbo; 3×-FLAG-RNF213-TurboID; not shown: 3×-FLAG tag; TurboID biotin ligase at the C-terminus
T1 sequence (Q63HN8 whole entry N1045D): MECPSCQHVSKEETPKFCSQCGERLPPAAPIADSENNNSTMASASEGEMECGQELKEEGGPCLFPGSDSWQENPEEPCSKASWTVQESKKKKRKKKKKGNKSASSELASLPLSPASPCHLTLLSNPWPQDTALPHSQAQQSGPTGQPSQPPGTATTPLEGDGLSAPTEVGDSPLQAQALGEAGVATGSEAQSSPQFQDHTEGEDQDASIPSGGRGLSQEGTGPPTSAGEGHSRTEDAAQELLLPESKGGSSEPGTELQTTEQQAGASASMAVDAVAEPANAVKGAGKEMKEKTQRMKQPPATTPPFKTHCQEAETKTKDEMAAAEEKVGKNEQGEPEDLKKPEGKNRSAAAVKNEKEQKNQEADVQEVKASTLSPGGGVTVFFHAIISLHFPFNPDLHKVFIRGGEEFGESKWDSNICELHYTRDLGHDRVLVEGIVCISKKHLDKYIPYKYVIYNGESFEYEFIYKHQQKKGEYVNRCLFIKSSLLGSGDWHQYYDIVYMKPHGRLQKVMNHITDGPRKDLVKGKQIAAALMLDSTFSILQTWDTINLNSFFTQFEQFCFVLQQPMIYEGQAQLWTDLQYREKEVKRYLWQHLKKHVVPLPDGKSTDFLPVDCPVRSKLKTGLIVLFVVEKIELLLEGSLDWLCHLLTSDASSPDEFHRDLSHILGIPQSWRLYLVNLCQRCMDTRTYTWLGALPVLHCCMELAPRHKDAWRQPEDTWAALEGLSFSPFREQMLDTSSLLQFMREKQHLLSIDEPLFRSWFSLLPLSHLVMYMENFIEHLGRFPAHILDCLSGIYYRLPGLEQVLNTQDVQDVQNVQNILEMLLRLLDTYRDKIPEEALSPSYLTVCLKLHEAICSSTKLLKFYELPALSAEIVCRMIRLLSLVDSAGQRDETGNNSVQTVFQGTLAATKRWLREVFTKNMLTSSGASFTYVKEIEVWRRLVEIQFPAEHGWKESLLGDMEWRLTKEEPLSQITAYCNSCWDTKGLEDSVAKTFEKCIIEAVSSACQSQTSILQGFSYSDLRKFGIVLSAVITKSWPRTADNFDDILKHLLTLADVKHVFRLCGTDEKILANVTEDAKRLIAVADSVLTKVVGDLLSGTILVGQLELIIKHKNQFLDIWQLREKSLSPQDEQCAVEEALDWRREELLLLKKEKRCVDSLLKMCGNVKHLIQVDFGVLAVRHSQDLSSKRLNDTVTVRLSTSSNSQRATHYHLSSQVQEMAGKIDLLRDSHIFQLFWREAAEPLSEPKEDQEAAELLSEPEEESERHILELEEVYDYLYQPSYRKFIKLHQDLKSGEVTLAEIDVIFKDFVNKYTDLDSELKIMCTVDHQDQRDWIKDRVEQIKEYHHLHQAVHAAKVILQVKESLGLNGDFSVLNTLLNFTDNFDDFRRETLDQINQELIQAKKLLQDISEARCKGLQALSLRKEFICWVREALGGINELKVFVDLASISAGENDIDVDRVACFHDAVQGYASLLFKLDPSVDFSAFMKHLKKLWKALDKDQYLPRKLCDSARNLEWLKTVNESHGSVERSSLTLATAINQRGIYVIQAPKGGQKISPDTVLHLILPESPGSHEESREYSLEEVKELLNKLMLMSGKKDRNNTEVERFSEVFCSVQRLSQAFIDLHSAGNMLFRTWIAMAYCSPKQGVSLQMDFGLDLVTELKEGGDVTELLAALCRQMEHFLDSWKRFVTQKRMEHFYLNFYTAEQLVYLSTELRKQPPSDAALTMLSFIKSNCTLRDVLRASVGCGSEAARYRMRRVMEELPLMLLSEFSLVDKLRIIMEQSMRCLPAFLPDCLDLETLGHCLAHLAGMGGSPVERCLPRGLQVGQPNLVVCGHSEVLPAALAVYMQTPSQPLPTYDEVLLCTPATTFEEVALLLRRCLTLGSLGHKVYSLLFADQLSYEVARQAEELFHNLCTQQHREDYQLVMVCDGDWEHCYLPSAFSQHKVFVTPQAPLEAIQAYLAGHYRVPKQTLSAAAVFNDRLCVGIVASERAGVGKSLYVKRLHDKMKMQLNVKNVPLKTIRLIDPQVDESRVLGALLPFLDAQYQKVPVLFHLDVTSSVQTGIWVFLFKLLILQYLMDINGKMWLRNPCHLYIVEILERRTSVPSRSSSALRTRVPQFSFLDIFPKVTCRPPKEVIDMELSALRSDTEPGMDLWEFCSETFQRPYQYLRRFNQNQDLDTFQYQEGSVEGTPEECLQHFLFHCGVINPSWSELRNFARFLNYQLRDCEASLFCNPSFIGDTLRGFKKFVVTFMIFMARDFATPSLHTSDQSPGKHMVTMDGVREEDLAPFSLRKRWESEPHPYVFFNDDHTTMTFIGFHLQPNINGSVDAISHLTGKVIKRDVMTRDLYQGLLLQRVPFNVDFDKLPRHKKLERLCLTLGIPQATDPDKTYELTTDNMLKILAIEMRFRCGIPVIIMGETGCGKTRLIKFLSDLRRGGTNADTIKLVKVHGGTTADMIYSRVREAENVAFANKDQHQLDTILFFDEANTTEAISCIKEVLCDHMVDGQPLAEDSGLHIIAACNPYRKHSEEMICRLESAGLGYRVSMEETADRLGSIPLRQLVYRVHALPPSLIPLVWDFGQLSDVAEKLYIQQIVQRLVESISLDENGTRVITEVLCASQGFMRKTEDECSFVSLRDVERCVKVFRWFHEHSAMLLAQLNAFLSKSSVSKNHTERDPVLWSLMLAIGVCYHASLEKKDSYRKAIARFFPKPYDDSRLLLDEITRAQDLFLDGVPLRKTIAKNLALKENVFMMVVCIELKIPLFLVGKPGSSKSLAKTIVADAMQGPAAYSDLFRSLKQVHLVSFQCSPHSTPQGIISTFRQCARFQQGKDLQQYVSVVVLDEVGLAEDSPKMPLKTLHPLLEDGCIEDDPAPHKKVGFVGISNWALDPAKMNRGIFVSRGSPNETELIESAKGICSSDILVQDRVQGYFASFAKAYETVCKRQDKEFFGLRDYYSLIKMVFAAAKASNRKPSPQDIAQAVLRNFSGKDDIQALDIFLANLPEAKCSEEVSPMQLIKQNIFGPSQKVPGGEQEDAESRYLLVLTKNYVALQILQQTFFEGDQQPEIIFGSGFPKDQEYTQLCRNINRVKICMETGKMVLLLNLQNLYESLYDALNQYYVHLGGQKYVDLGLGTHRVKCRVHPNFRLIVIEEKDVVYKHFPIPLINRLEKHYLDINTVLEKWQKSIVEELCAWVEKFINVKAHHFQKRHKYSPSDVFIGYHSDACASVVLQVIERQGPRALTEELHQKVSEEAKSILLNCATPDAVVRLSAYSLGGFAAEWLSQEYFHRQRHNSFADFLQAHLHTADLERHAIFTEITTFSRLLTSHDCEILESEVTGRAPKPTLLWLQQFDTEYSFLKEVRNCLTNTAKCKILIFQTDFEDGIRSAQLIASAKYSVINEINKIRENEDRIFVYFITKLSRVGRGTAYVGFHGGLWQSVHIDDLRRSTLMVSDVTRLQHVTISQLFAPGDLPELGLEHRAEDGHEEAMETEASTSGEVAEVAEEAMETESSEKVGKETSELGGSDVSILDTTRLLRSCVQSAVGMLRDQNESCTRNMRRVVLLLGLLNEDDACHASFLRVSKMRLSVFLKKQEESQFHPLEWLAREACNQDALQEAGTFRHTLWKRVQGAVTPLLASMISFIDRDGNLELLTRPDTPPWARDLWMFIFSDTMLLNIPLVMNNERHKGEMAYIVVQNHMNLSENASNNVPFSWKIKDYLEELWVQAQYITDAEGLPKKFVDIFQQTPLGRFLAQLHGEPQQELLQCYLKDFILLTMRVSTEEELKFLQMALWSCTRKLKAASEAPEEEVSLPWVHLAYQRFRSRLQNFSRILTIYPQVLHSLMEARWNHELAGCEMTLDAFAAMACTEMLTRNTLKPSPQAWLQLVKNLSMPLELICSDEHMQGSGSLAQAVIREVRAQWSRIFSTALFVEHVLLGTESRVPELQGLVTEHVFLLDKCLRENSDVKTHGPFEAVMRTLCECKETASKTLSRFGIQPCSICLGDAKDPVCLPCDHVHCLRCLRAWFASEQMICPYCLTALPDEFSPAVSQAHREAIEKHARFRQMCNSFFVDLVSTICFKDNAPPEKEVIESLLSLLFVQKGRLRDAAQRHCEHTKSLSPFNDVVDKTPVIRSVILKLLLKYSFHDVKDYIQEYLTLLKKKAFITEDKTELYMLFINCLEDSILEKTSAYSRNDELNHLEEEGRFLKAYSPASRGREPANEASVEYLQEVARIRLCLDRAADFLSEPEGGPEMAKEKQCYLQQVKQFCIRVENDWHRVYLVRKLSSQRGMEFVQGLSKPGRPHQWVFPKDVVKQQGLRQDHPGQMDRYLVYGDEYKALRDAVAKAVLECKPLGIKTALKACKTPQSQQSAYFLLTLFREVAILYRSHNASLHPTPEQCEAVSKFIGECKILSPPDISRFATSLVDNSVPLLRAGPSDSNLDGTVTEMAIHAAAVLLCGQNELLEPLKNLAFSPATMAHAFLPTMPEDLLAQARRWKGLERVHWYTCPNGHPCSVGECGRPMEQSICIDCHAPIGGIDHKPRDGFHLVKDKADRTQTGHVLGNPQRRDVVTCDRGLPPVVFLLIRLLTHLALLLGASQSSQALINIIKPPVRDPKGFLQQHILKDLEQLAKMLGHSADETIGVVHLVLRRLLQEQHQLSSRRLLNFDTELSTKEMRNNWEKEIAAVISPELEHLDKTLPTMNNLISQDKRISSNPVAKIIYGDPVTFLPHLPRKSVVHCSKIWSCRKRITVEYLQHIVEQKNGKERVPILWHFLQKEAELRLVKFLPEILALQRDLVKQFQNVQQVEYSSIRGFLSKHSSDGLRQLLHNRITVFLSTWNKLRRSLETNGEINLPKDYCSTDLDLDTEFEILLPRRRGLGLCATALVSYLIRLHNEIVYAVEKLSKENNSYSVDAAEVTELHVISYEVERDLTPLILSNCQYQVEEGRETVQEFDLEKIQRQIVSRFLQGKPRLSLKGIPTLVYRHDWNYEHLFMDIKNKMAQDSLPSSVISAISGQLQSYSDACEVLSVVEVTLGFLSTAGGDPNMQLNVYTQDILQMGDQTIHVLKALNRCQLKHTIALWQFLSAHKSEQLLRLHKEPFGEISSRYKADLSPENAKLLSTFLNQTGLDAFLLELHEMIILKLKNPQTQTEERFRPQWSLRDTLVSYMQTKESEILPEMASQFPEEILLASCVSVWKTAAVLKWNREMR
Experiment: TurboID proximity biotinylation, streptavidin recovery, MS, SAINT express
Description: Proteins were ranked as potential binding partners by using the SAINT express algorithm³⁶ Immunoblotting (FIG. 9A) and silver staining (FIG. 9B) confirmed that similar amounts of each sample were submitted for analysis. Relatively few proteins labelled by N-Turbo were labelled to an extent greater than their labeling by Control-Turbo (FIG. 9C). […] Among the other top candidates were the major K63-deubiquitinase and NF-κB regulator CYLD and its interacting protein SPATA2 (FIG. 2B, orange-colored arrows). […] Other top C-Turbo interactors included proteins involved in VEGF signaling, which is induced in hypoxia (FLII, MYOF^{39,40}), inflammation and atherosclerosis (MAP4K4, SPTLC1^{41,42}), lipotoxicity (SPTLC1, ALDH1B1^{43,44}), ischemia response (CPEB4⁴⁵), and stroke (SARS2⁴⁶). Top N-Turbo interactors included CYP51A1, which plays a crucial role in cholesterol metabolism and atherosclerosis⁴⁷.
Cells were cultured in standard media but with 10% tetracycline (Tet)-free FBS (Clonetech) for at least 1 week. Tet-free/biotin-free FBS was generated by incubating Tet-free FBS with sterile streptavidin beads overnight followed by centrifugation to remove the beads. N-Turbo, C-Turbo, and Turbo proteins were induced by adding 1 μg/ml Dox to cells for 36 hours. For the last ten min. of incubation, 500 μM of biotin was added to the medium. Labelling reactions was terminated by removing the medium and adding ice-cold PBS to plates, which were kept on ice. Lysates were collected in RIPA buffer without Na-deoxycholate, and biotin-labelled proteins were collected by incubating with high-capacity streptavidin agarose beads for 4 hours at 4° C.

Row | Binder | binding result
1 | B1 | binds
2 | B2 | binds
3 | B3 | binds
4 | B4 | binds
5 | B5 | binds
6 | B6 | binds
